Laboratory results: US20210261648A1 (published 2021)

Assays:
FcγRIa = target: T1, FcγRIa (human, UniProt P12314 16-292); assay: SPR (Biacore), captured antibody, soluble FcγR
T1 construct: Whole entry named; also called FcgRIa; CD64A

FcγRIIa type H = target: T2, FcγRIIa type H (human, UniProt P12318 34-217); assay: SPR (Biacore), captured antibody, soluble FcγR
T2 construct: extracellular domain; also called FcγRIIaH; FcgRIIaH
T2 sequence (looked up): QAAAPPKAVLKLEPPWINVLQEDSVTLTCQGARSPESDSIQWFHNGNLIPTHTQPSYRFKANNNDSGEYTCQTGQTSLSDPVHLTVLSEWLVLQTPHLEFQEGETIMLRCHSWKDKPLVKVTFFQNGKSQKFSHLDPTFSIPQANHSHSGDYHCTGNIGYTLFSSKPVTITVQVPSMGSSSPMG

FcγRIIa type R [1] = target: T3, FcγRIIa type R (human, UniProt P12318 34-217); assay: SPR (Biacore), captured antibody, soluble FcγR
T3 chain: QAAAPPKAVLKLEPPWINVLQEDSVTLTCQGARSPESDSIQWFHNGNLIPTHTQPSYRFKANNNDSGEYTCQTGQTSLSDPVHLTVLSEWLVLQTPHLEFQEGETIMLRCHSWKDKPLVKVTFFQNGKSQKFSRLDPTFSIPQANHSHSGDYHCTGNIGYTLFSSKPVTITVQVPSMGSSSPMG

FcγRIIb [2] = target: T4, FcγRIIb (human, UniProt P31994 43-217); assay: SPR (Biacore), captured antibody, soluble FcγR
T4 construct: extracellular domain; also called FcgRIIb; CD32B
T4 sequence (looked up): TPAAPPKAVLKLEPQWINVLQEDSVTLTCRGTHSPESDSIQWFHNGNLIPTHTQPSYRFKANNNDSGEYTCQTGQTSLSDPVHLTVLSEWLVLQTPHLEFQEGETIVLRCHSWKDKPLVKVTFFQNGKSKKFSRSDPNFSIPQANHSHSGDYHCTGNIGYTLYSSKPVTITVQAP

FcγRIIa type R [3] = target: T3, FcγRIIa type R; assay: SPR (Biacore); parent = IL6R-B3/IL6R-L
FcγRIIb [4] = target: T4, FcγRIIb; assay: SPR (Biacore); parent = IL6R-B3/IL6R-L
[5] = target: T5, FcγRIa extracellular domain with C-terminal His tag (human, UniProt P12314 16-292); assay: SPR binding amount, relative to IL6R-BF648/IL6R-L
T5 construct: also called FcgRIa; not shown: His tag attached to the C terminus

[6] = target: T6, FcγRIIb extracellular domain with C-terminal His tag (human, UniProt P31994 43-217); assay: SPR binding amount, relative to IL6R-BF648/IL6R-L
T6 construct: extracellular domain; For crystallography it was expressed with kifunensine and trimmed with Endo F1; also called FcgRIIb; FcγRIIb extracellular region; not shown: His tag attached to the C terminus
T6 sequence (looked up): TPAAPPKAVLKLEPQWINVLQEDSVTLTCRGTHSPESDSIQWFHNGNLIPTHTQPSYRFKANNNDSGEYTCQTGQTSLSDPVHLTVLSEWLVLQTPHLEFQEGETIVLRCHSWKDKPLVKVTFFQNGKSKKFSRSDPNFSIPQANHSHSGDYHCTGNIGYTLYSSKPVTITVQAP

[7] = target: T7, FcγRIIa type H extracellular domain with C-terminal His tag (human, UniProt P12318 34-217); assay: SPR binding amount, relative to IL6R-BF648/IL6R-L
T7 construct: extracellular domain; also called FcγRIIaH; FcgRIIaH; not shown: His tag attached to the C terminus
T7 sequence (looked up): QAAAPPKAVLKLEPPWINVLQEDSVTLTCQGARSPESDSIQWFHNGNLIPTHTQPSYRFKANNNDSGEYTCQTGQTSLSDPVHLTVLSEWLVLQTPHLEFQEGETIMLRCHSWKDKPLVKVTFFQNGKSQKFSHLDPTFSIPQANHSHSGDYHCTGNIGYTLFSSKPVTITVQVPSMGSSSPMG

T5 sequence (P12314 16-292): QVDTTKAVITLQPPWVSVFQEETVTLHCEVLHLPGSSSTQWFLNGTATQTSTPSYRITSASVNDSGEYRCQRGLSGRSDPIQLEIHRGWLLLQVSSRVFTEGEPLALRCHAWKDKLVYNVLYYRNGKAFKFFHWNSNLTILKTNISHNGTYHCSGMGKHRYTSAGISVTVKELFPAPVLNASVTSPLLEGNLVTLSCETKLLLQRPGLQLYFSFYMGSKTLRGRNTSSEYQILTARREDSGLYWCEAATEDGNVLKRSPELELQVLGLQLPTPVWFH
T1 sequence (P12314 16-292): as above

B1: IL6R-BP556/IL6R-L (antibody, human IgG1, kappa)
heavy: QVQLQESGPGLVKPSETLSLTCAVSGHSISHDHAWSWVRQPPGEGLEWIGFISYSGITNYNPSLQGRVTISRDNSKNTLYLQMNSLRAEDTAVYYCARSLARTTAMDYWGEGTLVTVSSASTKGPSVFPLAPSSKSTSGGTAALGCLVKDYFPEPVTVSWNSGALTSGVHTFPAVLQSSGLYSLSSVVTVPSSSLGTQTYICNVNHKPSNTKVDKKVEPKSCDKTHTCPPCPAPELLGDDSVFLFPPKPKDTLMISRTPEVTCVVIDVGEEDGEVKFNWYVDGVEVHNAKTKPREEQDNSTYRVVSVLTVLHQDWLNGKEYKCKVSNKALPRPIEKTISKAKGQPREPQVYTLPPSRDELTKNQVSLTCLVKGFYPSDIAVEWESNGQPENNYKTTPPVLDSDGSFFLYSKLTVDKSRWQQGNVFSCSVMHEALHNHYTQESLSLSP
light: not shown
notes: Alterations in EU numbering, introduced into IL6R-B3
Kd (FcγRIa): 43 nM | Kd (FcγRIIa type H): 5800 nM | Kd (FcγRIIa type R [1]): 300 nM | Kd (FcγRIIb [2]): 8.4 nM | KD(IIaR) of the parent polypeptide/KD(IIaR) of the altered polypeptide (FcγRIIa type R [3]): 3.7 fold | KD(IIb) of the parent polypeptide/KD(IIb) of the altered polypeptide (FcγRIIb [4]): 370 fold

B2: IL6R-2B169/IL6R-L (antibody, human IgG1, kappa)
heavy: QVQLQESGPGLVKPSETLSLTCAVSGHSISHDHAWSWVRQPPGEGLEWIGFISYSGITNYNPSLQGRVTISRDNSKNTLYLQMNSLRAEDTAVYYCARSLARTTAMDYWGEGTLVTVSSASTKGPSVFPLAPSSKSTSGGTAALGCLVKDYFPEPVTVSWNSGALTSGVHTFPAVLQSSGLYSLSSVVTVPSSSLGTQTYICNVNHKPSNTKVDKKVEPKSCDKTHTCPPCPAPELLGGDSVFLFPPKPKDTLMISRTPEVTCVVVDVSHEDPEVKFNWYVDGVEVHNAKTKPREEQYNSTYRVVSVLTVLHQDWLNGKEYKCKISNKALPAPIEKTISKAKGQPREPQVYTLPPSRDELTKNQVSLTCLVKGFYPSDIAVEWESNGQPENNYKTTPPVLDSDGSFFLYSKLTVDKSRWQQGNVFSCSVMHEALHNHYTQESLSLSP
light: not shown
notes: Alterations introduced into IL6R-B3
relative binding activity (IL6R-BF648/IL6R-L = 100) [5]: 73 | relative binding activity (IL6R-BF648/IL6R-L = 100) [6]: 104 | relative binding activity (IL6R-BF648/IL6R-L = 100) [7]: 83

B3: IL6R-2B128/IL6R-L (antibody, human IgG1, kappa)
heavy: QVQLQESGPGLVKPSETLSLTCAVSGHSISHDHAWSWVRQPPGEGLEWIGFISYSGITNYNPSLQGRVTISRDNSKNTLYLQMNSLRAEDTAVYYCARSLARTTAMDYWGEGTLVTVSSASTKGPSVFPLAPSSKSTSGGTAALGCLVKDYFPEPVTVSWNSGALTSGVHTFPAVLQSSGLYSLSSVVTVPSSSLGTQTYICNVNHKPSNTKVDKKVEPKSCDKTHTCPPCPAPELLGGDSVFLFPPKPKDTLMISRTPEVTCVVVDVSHEDPEVKFNWYVDGVEVHNAKTKPREEQDNSTYRVVSVLTVLHQDWLNGKEYKCKVSNKALPAPIEKTISKAKGQPREPQVYTLPPSRDELTKNQVSLTCLVKGFYPSDIAVEWESNGQPENNYKTTPPVLDSDGSFFLYSKLTVDKSRWQQGNVFSCSVMHEALHNHYTQESLSLSP
light: not shown
notes: as for B2
relative binding activity (IL6R-BF648/IL6R-L = 100) [5]: 95 | relative binding activity (IL6R-BF648/IL6R-L = 100) [6]: 103 | relative binding activity (IL6R-BF648/IL6R-L = 100) [7]: 37

B4: IL6R-BP078/IL6R-L (antibody, human IgG1, kappa)
heavy: QVQLQESGPGLVKPSETLSLTCAVSGHSISHDHAWSWVRQPPGEGLEWIGFISYSGITNYNPSLQGRVTISRDNSKNTLYLQMNSLRAEDTAVYYCARSLARTTAMDYWGEGTLVTVSSASTKGPSVFPLAPSSKSTSGGTAALGCLVKDYFPEPVTVSWNSGALTSGVHTFPAVLQSSGLYSLSSVVTVPSSSLGTQTYICNVNHKPSNTKVDKKVEPKSCDKTHTCPPCPAPELLGGDSVFLFPPKPKDTLMISRTPEVTCVVVDVSHEDPEVKFNWYVDGVEVHNAKTKPREEQYNSTYRVVSVLTVLHQDWLNGKEYKCKVSNKALPMPIEKTISKAKGQPREPQVYTLPPSRDELTKNQVSLTCLVKGFYPSDIAVEWESNGQPENNYKTTPPVLDSDGSFFLYSKLTVDKSRWQQGNVFSCSVMHEALHNHYTQESLSLSP
light: not shown
notes: as for B2
relative binding activity (IL6R-BF648/IL6R-L = 100) [5]: 106 | relative binding activity (IL6R-BF648/IL6R-L = 100) [6]: 105 | relative binding activity (IL6R-BF648/IL6R-L = 100) [7]: 89

B5: IL6R-2B172/IL6R-L (antibody, human IgG1, kappa)
heavy: QVQLQESGPGLVKPSETLSLTCAVSGHSISHDHAWSWVRQPPGEGLEWIGFISYSGITNYNPSLQGRVTISRDNSKNTLYLQMNSLRAEDTAVYYCARSLARTTAMDYWGEGTLVTVSSASTKGPSVFPLAPSSKSTSGGTAALGCLVKDYFPEPVTVSWNSGALTSGVHTFPAVLQSSGLYSLSSVVTVPSSSLGTQTYICNVNHKPSNTKVDKKVEPKSCDKTHTCPPCPAPELLGGDSVFLFPPKPKDTLMISRTPEVTCVVVDVSHEDPEVKFNWYVDGVEVHNAKTKPREEQYNSTYRVVSVLTVLHQDWLNGKEYKCKMSNKALPAPIEKTISKAKGQPREPQVYTLPPSRDELTKNQVSLTCLVKGFYPSDIAVEWESNGQPENNYKTTPPVLDSDGSFFLYSKLTVDKSRWQQGNVFSCSVMHEALHNHYTQESLSLSP
light: not shown
notes: as for B2
relative binding activity (IL6R-BF648/IL6R-L = 100) [5]: 140 | relative binding activity (IL6R-BF648/IL6R-L = 100) [6]: 132 | relative binding activity (IL6R-BF648/IL6R-L = 100) [7]: 179

B6: IL6R-2B002/IL6R-L (antibody, human IgG1, kappa)
heavy: QVQLQESGPGLVKPSETLSLTCAVSGHSISHDHAWSWVRQPPGEGLEWIGFISYSGITNYNPSLQGRVTISRDNSKNTLYLQMNSLRAEDTAVYYCARSLARTTAMDYWGEGTLVTVSSASTKGPSVFPLAPSSKSTSGGTAALGCLVKDYFPEPVTVSWNSGALTSGVHTFPAVLQSSGLYSLSSVVTVPSSSLGTQTYICNVNHKPSNTKVDKKVEPKSCDKTHTCPPCPAPDLLGGDSVFLFPPKPKDTLMISRTPEVTCVVVDVSHEDPEVKFNWYVDGVEVHNAKTKPREEQYNSTYRVVSVLTVLHQDWLNGKEYKCKVSNKALPAPIEKTISKAKGQPREPQVYTLPPSRDELTKNQVSLTCLVKGFYPSDIAVEWESNGQPENNYKTTPPVLDSDGSFFLYSKLTVDKSRWQQGNVFSCSVMHEALHNHYTQESLSLSP
light: not shown
notes: as for B2
relative binding activity (IL6R-BF648/IL6R-L = 100) [5]: 118 | relative binding activity (IL6R-BF648/IL6R-L = 100) [6]: 116 | relative binding activity (IL6R-BF648/IL6R-L = 100) [7]: 147

B7: IL6R-2B171/IL6R-L (antibody, human IgG1, kappa)
heavy: QVQLQESGPGLVKPSETLSLTCAVSGHSISHDHAWSWVRQPPGEGLEWIGFISYSGITNYNPSLQGRVTISRDNSKNTLYLQMNSLRAEDTAVYYCARSLARTTAMDYWGEGTLVTVSSASTKGPSVFPLAPSSKSTSGGTAALGCLVKDYFPEPVTVSWNSGALTSGVHTFPAVLQSSGLYSLSSVVTVPSSSLGTQTYICNVNHKPSNTKVDKKVEPKSCDKTHTCPPCPAPELLGGDSVFLFPPKPKDTLMISRTPEVTCVVVDVSHEDPEVKFNWYVDGVEVHNAKTKPREEQYNSTYRVVSVLTVLHQDWLNGKEYKCKLSNKALPAPIEKTISKAKGQPREPQVYTLPPSRDELTKNQVSLTCLVKGFYPSDIAVEWESNGQPENNYKTTPPVLDSDGSFFLYSKLTVDKSRWQQGNVFSCSVMHEALHNHYTQESLSLSP
light: not shown
notes: as for B2
relative binding activity (IL6R-BF648/IL6R-L = 100) [5]: 116 | relative binding activity (IL6R-BF648/IL6R-L = 100) [6]: 113 | relative binding activity (IL6R-BF648/IL6R-L = 100) [7]: 115

B8: IL6R-BP100/IL6R-L (antibody, human IgG1, kappa)
heavy: QVQLQESGPGLVKPSETLSLTCAVSGHSISHDHAWSWVRQPPGEGLEWIGFISYSGITNYNPSLQGRVTISRDNSKNTLYLQMNSLRAEDTAVYYCARSLARTTAMDYWGEGTLVTVSSASTKGPSVFPLAPSSKSTSGGTAALGCLVKDYFPEPVTVSWNSGALTSGVHTFPAVLQSSGLYSLSSVVTVPSSSLGTQTYICNVNHKPSNTKVDKKVEPKSCDKTHTCPPCPAPELLGGDSVFLFPPKPKDTLMISRTPEVTCVVVDVAHEDPEVKFNWYVDGVEVHNAKTKPREEQYNSTYRVVSVLTVLHQDWLNGKEYKCKVSNKALPAPIEKTISKAKGQPREPQVYTLPPSRDELTKNQVSLTCLVKGFYPSDIAVEWESNGQPENNYKTTPPVLDSDGSFFLYSKLTVDKSRWQQGNVFSCSVMHEALHNHYTQESLSLSP
light: not shown
notes: as for B2
relative binding activity (IL6R-BF648/IL6R-L = 100) [5]: 121 | relative binding activity (IL6R-BF648/IL6R-L = 100) [6]: 110 | relative binding activity (IL6R-BF648/IL6R-L = 100) [7]: 128
